Assay results from article PMC11189301, “Structure of the human outer kinetochore KMN network complex” (Nature Structural & Molecular Biology, 2024).

Tests used:
MIS12C = settings: cited from earlier work
Description: We used isothermal titration calorimetry (ITC) to test this structural model by measuring the affinities of MIS12C for both a peptide modeled on CENP-C and a Dsn1^N auto-inhibitory peptide, including structure-guided interface mutants (Fig. 2g and Extended Data Fig. 4). […] Deletion of Dsn1^N (residues 6–113; MIS12C ...

[1] = molecular target: T1, MIS12 complex (Mis12, Pmf1, Dsn1, Nsl1), wild type, full length (Homo sapiens, UniProt Q9H081 1-205; Q6P1K2 1-205; Q9H410 1-356; Q96IY1 1-281); experiment: ITC; peptide in the syringe titrated into the MIS12C variant in the cell; 20 °C; 20 mM HEPES pH 7.5, 100 mM NaCl, 1 mM TCEP; single-site binding model; duplicate or triplicate; settings: both partners purified
T1 construct: Mis12, subunit of human MIS12C; Pmf1, subunit of human MIS12C; Dsn1, subunit of human MIS12C; Nsl1, subunit of human MIS12C; The DS tag on Pmf1 is TEV cleavable; a cleavage is not described; also called MIS12C (WT); wild-type MIS12C; source: High-5 insect cells (baculovirus), purified (Strep-Tactin, Resource S, Superdex 200); copies: + + +
T1 sequence (looked up) 1: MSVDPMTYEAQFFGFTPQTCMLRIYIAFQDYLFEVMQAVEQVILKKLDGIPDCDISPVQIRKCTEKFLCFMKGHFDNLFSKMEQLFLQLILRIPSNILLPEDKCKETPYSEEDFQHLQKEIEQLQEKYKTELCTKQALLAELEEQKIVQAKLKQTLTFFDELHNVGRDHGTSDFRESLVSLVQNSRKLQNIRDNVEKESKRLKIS
T1 sequence (looked up) 2: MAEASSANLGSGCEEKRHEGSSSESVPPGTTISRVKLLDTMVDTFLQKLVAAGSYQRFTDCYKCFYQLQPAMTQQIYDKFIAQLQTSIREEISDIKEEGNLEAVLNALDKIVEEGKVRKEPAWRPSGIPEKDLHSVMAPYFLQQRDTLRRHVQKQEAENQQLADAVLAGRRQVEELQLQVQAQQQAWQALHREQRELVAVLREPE
T1 sequence (looked up) 3: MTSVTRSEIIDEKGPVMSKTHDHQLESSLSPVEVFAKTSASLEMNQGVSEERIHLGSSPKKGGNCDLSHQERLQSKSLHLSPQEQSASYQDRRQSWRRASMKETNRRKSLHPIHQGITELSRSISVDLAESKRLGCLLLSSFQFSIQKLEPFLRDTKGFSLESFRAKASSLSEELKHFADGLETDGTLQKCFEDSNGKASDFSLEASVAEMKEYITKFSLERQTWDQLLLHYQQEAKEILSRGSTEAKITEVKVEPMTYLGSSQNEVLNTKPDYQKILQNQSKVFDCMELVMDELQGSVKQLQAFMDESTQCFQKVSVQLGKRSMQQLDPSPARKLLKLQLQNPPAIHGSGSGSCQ
T1 sequence (looked up) 4: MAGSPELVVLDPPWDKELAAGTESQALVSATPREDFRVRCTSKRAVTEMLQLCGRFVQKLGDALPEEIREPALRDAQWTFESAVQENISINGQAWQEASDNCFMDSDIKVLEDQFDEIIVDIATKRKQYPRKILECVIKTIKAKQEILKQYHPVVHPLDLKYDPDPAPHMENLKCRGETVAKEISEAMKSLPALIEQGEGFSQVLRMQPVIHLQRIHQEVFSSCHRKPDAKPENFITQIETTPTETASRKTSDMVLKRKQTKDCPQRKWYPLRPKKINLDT

[2] = molecular target: T2, MIS12 complex with phosphomimetic Dsn1 S100D S109D (Homo sapiens, UniProt Q9H081 1-205; Q6P1K2 1-205; Q9H410 1-356; Q96IY1 1-281, S100D | S109D); experiment: as above; settings: both partners purified
T2 construct: Mis12, subunit of human MIS12C; Pmf1, subunit of human MIS12C; Dsn1, subunit of human MIS12C, S100D S109D; Nsl1, subunit of human MIS12C; also called MIS12C^(Dsn1-S100D S109D); MIS12C^(Dsn1 S100D/S109D); source: High-5 insect cells (baculovirus), purified (Strep-Tactin, Resource S, Superdex 200); copies: + + +
T2 sequence (looked up) 1: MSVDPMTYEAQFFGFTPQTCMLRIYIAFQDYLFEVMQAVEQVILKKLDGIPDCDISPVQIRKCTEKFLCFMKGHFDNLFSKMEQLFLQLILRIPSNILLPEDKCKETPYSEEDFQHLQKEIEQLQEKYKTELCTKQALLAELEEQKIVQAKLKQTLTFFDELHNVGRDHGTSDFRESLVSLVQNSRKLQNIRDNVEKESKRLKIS
T2 sequence (looked up) 2: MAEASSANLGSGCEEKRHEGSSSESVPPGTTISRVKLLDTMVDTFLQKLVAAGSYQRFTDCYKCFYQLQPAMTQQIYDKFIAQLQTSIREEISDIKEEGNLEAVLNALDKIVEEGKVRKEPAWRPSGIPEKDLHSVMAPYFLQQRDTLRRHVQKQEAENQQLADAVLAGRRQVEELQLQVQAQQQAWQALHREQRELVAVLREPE
T2 sequence (looked up) 3: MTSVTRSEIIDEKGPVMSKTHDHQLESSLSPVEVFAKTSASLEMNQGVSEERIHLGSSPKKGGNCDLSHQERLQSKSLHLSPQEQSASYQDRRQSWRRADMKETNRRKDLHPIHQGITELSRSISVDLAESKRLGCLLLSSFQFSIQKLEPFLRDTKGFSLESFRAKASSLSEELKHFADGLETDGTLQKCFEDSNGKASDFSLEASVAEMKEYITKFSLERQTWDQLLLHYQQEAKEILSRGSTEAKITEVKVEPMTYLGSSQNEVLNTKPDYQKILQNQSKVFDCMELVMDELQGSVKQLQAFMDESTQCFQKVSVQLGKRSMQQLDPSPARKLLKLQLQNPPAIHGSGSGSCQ
T2 sequence (looked up) 4: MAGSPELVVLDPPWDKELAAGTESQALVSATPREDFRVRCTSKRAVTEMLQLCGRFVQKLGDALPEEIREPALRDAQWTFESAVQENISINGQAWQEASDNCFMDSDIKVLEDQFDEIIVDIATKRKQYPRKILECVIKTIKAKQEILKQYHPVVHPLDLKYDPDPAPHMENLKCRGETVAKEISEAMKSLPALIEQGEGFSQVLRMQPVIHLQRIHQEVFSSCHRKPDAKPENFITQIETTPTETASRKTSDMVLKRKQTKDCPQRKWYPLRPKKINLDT

[3] = molecular target: T3, MIS12 complex with Dsn1 residues 6–113 deleted (Homo sapiens, UniProt Q9H081 1-205; Q6P1K2 1-205; Q9H410 1-356; Q96IY1 1-281, 6–113 residues deleted); experiment: as above; settings: both partners purified
T3 construct: Mis12, subunit of human MIS12C; Pmf1, subunit of human MIS12C; Nsl1, subunit of human MIS12C; also called MIS12C^Dsn1ΔN; MIS12C^ΔN-Dsn1; source: High-5 insect cells (baculovirus), purified (Strep-Tactin, Resource S, Superdex 200); copies: + + +
T3 sequence (looked up) 1: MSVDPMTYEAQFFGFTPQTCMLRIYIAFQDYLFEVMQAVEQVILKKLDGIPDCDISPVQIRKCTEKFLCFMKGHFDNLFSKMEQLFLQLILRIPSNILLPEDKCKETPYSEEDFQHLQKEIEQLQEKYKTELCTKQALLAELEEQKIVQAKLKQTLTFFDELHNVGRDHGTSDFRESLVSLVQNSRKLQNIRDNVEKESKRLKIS
T3 sequence (looked up) 2: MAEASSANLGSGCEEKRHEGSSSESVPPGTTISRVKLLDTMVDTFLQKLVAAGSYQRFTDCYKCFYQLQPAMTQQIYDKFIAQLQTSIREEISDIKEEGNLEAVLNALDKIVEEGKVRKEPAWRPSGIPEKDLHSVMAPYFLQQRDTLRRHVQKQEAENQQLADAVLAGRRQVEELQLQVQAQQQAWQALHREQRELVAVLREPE
T3 sequence (looked up) 3: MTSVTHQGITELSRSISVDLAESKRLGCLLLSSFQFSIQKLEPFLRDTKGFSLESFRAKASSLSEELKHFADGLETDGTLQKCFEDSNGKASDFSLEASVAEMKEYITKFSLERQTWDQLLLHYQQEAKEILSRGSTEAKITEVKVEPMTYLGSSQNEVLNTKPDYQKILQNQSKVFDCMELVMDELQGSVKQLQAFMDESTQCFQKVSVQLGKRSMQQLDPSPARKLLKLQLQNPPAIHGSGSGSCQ
T3 sequence (looked up) 4: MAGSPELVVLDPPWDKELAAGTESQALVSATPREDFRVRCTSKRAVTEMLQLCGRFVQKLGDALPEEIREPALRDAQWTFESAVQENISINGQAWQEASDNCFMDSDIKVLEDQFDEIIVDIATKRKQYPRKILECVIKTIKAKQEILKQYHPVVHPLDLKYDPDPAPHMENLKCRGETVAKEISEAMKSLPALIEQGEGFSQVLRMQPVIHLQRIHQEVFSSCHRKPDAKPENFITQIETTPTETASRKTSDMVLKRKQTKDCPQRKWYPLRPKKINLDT

Knl1 = experiment: SEC assessment of MIS12C^Nsl1ΔC binding to Knl1; set-up: species or system Homo sapiens; settings: MIS12C^Nsl1ΔC (Nsl1 residues 265–281 deleted) + KNL1 at 4 µM each; 20 mM HEPES pH 7.8, 150 mM NaCl, 0.5 mM TCEP; Superose 6; at least two repeats
Experimental: Assessment of substitutions in the MIS12C–KNL1 interfaces
To test the effect of substitutions in the MIS12C–KNL1 interfaces, either wild-type MIS12C or MIS12C^Nsl1ΔC was mixed with either wild-type KNL1 or two mutants (KNL1^R2248D […] (KNL1^mut1), KNL1^S2270R S2272W (KNL1^mut2)) at 4 µM each in a buffer of 20 mM HEPES (pH 7.8), 150 mM NaCl and 0.5 mM TCEP, and 50 µl was loaded onto a Superose 6 size-exclusion column (Cytiva).
Extended Data Fig. 9 Biochemical validation of the MIS12C:Knl1 interface. a Coomassie blue-stained SDS-PAGE gels of the MIS12C:Knl1 interaction reconstitutions. MIS12C (WT) and MIS12C with Nsl1 truncated at the C-terminus (1–264 Nsl1 construct, MIS12C^Nsl1ΔC) were tested in their ability to bind either wild-type RWD domains of Knl1 (2131–2337 construct, labelled Knl1 for simplicity) or Knl1 mutants (R2248D/W2249S substitutions, Knl1^mut1, and S2270R/S2272W substitutions, Knl1^mut2, as well as S2270R/S2272W/R2248A/W2249S substitutions, Knl1^mut3). The binding experiments were repeated at least two independent times with identical results. The gels are aligned according to the fraction number of the protein sample eluted from the size exclusion column. b SEC elution chromatograms of all of the experiments described in (a). Source data

## residues 1–21 of CENP-C: residues 1–21 of CENP-C, prior data of ref 10
MIS12C
  increase in affinity of MIS12C for residues 1–21 of CENP-C on deleting a ten-residue segment of Dsn1 incorporating Ser100 and Ser109: 90 fold

B1: CENP-C^2–22 peptide (peptide)
peptide: Ac-AASGLDHLKNGYRRRFCRPSRA-NH2
notes: CENP-C, human, named residues 2-22; also called N-terminal region of CENP-C (residues 2–22); source: synthetic peptide (Biosynth)
[1]
  Kd: 485 nM
[2]
  Kd: 20.4 nM
[3]
  Kd: 10.2 nM

B2: MIS12C^Nsl1ΔC: MIS12C with Nsl1 truncated at the C-terminus (1–264 Nsl1 construct; residues 265–281 deleted) (protein)
chain 1: MSVDPMTYEAQFFGFTPQTCMLRIYIAFQDYLFEVMQAVEQVILKKLDGIPDCDISPVQIRKCTEKFLCFMKGHFDNLFSKMEQLFLQLILRIPSNILLPEDKCKETPYSEEDFQHLQKEIEQLQEKYKTELCTKQALLAELEEQKIVQAKLKQTLTFFDELHNVGRDHGTSDFRESLVSLVQNSRKLQNIRDNVEKESKRLKIS
chain 2: MAEASSANLGSGCEEKRHEGSSSESVPPGTTISRVKLLDTMVDTFLQKLVAAGSYQRFTDCYKCFYQLQPAMTQQIYDKFIAQLQTSIREEISDIKEEGNLEAVLNALDKIVEEGKVRKEPAWRPSGIPEKDLHSVMAPYFLQQRDTLRRHVQKQEAENQQLADAVLAGRRQVEELQLQVQAQQQAWQALHREQRELVAVLREPE
chain 3: MTSVTRSEIIDEKGPVMSKTHDHQLESSLSPVEVFAKTSASLEMNQGVSEERIHLGSSPKKGGNCDLSHQERLQSKSLHLSPQEQSASYQDRRQSWRRASMKETNRRKSLHPIHQGITELSRSISVDLAESKRLGCLLLSSFQFSIQKLEPFLRDTKGFSLESFRAKASSLSEELKHFADGLETDGTLQKCFEDSNGKASDFSLEASVAEMKEYITKFSLERQTWDQLLLHYQQEAKEILSRGSTEAKITEVKVEPMTYLGSSQNEVLNTKPDYQKILQNQSKVFDCMELVMDELQGSVKQLQAFMDESTQCFQKVSVQLGKRSMQQLDPSPARKLLKLQLQNPPAIHGSGSGSCQ
chain 4: MAGSPELVVLDPPWDKELAAGTESQALVSATPREDFRVRCTSKRAVTEMLQLCGRFVQKLGDALPEEIREPALRDAQWTFESAVQENISINGQAWQEASDNCFMDSDIKVLEDQFDEIIVDIATKRKQYPRKILECVIKTIKAKQEILKQYHPVVHPLDLKYDPDPAPHMENLKCRGETVAKEISEAMKSLPALIEQGEGFSQVLRMQPVIHLQRIHQEVFSSCHRKPDAKPENFITQIETTPTETASRKTSDMVLKRKQTKDC
modifications: left off: double strep II (DS), C-terminal, state not stated
Knl1
  MIS12C–Knl1 interaction by SEC, in words: reduced the interaction strength between Knl1 and MIS12C
